Changes are numbered by the printed parent chain. Names and notes keep the numbering of the source. Values joined by “and” are separate entries in the source; they are usually repeats but may differ in a detail not shown here. Equal values may be shown once. Each block holds one binder with its values, some of them ahead of it.
Key:
[1] = molecular target: T1, full-length lysyl oxidase-like 2 (fl-LOXL2), wild type, Q9Y4K0; assay: native gel or EMSA; Native PAGE, NativePAGE 4 to 16% Bis-Tris gels, 125 V for 2 h; self-association of purified LOXL2 forms; conditions: remark: other sources report otherwise
T1 chain: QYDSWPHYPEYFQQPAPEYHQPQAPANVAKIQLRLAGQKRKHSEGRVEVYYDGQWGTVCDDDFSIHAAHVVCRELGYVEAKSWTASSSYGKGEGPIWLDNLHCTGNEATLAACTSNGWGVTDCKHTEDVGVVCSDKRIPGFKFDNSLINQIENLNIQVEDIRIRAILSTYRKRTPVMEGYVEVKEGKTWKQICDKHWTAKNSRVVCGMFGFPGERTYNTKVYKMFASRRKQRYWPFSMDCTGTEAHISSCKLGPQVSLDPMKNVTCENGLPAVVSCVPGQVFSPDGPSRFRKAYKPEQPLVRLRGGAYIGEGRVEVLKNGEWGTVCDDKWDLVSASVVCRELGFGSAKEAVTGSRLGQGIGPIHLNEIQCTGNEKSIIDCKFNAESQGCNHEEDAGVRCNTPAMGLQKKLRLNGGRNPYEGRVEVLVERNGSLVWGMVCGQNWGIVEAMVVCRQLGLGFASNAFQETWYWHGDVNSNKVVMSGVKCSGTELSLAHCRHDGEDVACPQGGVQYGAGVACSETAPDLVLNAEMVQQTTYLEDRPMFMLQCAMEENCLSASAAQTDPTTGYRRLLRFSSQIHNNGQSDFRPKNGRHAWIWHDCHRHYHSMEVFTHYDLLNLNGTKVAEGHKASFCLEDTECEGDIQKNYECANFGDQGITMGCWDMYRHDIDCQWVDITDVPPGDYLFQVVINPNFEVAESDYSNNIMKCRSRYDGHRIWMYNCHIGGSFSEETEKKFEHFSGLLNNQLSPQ

[2] = molecular target: T1, full-length lysyl oxidase-like 2 …; assay: AUC; Sedimentation velocity, 20 °C, 40,000 RPM, 50 mM HEPES pH 8.0, fl-LOXL2 at 0.88, 0.30 and 0.088 mg/mL, c(s) model of SEDFIT; self-association; conditions: remark: other sources report otherwise
[3] = molecular target: T1, full-length lysyl oxidase-like 2 …; assay: SEC-MALS; Superdex 200 10/300, 50 mM Tris pH 8.0, 150 mM NaCl, 0.01% sodium azide; fl-LOXL2 at concentrations from 0.08 to 1.6 uM; self-association; conditions: remark: other sources report otherwise
[4] = molecular target: the molecule itself; assay: native gel or EMSA; Native PAGE, NativePAGE 4 to 16% Bis-Tris gels, 125 V for 2 h; self-association of purified LOXL2 forms

stoichiometry N [1]: 2 and 4
percent of dimer [2]: 11.6%
percent of monomer [2]: 83.6%
percent of tetramer and pentamer together [2]: 4.7%
stoichiometry N [2]: 4 and 5 and 2
stoichiometry N [3]: 2 and 4
B1: full-length lysyl oxidase-like 2 (fl-LOXL2), wild type, Q9Y4K0 26-774 (enzyme)
chain: T1 chain
modifications: here or on the partner: lysine tyrosylquinone (LTQ) cofactor (precursor residues Lys653 and Tyr689), Cu2+ bound; N-glycans (N-glycosylation sites Asn288, Asn455, Asn644); lysine tyrosylquinone (LTQ) cofactor (precursor residues Lys653 and Tyr689), Cu2+ bound; N-glycans (N-glycosylation sites Asn288, Asn455, Asn644)

B2: R314A/R316A/K317Q-LOXL2 (AAQ-LOXL2, a PACE4 cleavage site null mutant), full length (enzyme, UniProt Q9Y4K0 26-774, looked up)
chain: T1 chain with R289A, R291A, K292Q
notes: Lysyl oxidase-like 2 (LOXL2), full-length form with the PACE4 cleavage site mutated (text: R314A/R316A/K317Q); Secreted protein; also called R315A/R316A/K317Q mutant form of LOXL2
stoichiometry N [4]: 2 and 4

B3: K317R-LOXL2, full-length form (furin-cleavage site engineered) (enzyme, UniProt Q9Y4K0 26-774, looked up)
chain: T1 chain with K292R
notes: Lysyl oxidase-like 2 (LOXL2), K317R mutant, the full-length species in the K317R-LOXL2 lane of the native gel; the bands at ~175 and ~340 kDa are ascribed to its full-length form; also called K317R mutant
stoichiometry N [4]: 2 and 4
